In patent publication US20060199761A1, “Insulin resistance improving agent” (Japan Science And Technology Agency, priority 2002, published 2006):

Legend:
lipoatrophic mice [1] = test: Lipoatrophic mice (PPAR-γ+/− mice treated with HX531) with or without adiponectin, gAd or leptin; format: in vivo, mouse; details: for insulin resistance (FIG. 8): mice without adipose tissue, administration at a physiological concentration; for Liver TG content / Serum FFA / Serum TG / Skeletal muscle TG content: HF diet; for hyperglycemia and hyperinsulinemia (insulin resistance index, FIG. 8): lipoatrophic mice, continuous systemic infusion
Description: (§1) The measurements of [^14C] CO2 production from [1-^14C] palmitic acid were performed using liver and muscle slices as described (Diabetes 47, 1841-1847 (1998)). Liver and muscle homogenates were prepared, and tissue triglyceride content was determined with an extract solution (CHCl3:CH3OH=2:1). The remainder of the liver and muscle was immediately frozen in liquid nitrogen and stored at −80° C. until measurement of the enzymatic activity of ACO. ACO activity in the light mitochondrial fraction of liver and muscle was measured by assay that was based on the H2O2 dependent oxidation of leuco-dichlorofluorescein (Diabetes 47, 1841-1847 (1998)).
Unless otherwise described herein, administration was performed through continuous systemic infusion (pump) in combination with a high-fat (HF) diet for the final twelve days of the six-week HX531 treatment.
FIGS. 9 and 10 show mRNAs of fatty-acid translocase (FAT)/CD36, ACO, UCP2, and PPAR-α in mouse skeletal muscle and in liver, respectively. […] HX531 was administered as a 0.1% food admixture. Mice were stimulated with or without 1 U/g body weight of insulin for two minutes. Lysates were subjected to immunoprecipitation (IP) and immunoblotting through use of the antibodies described in Mol. Cell. Biol. 16, […] (1996).

db/db mice [2] = test: Rosiglitazone treatment of db/db mice on high-fat diet (adiponectin expression, glucose tolerance test)
lipoatrophic mice [3] = test: Lipoatrophic mice (PPAR-γ+/− mice treated with HX531) with or without adiponectin, gAd or leptin; format: in vivo, mouse; details: HX531 for four weeks
KKA^y mice [4] = test: Adiponectin administration to KKAy mice on high-fat diet; format: in vivo, mouse; details: for ACO activity, liver / ACO activity, skeletal muscle / Fatty acid oxidation [14C] palmitate→CO2, liver / Fatty acid oxidation [14C] palmitate→CO2, skeletal muscle / Rectal temperature / Serum FFA / Serum TG / TG content, liver / TG content, skeletal muscle: high fat diet, two weeks
Description: as §1
The mice were fed an HC or HF diet.
The following values were determined through use of KKA^y mice: acyl-CoA oxidase (ACO) activity and fatty acid oxidation in the skeletal muscle and in the liver, tissue triglyceride content in the skeletal muscle and in the liver, and serum free fatty acid level and serum triglyceride level. Mice were fed with high fat diet, and full-length adiponectin (Ad) or adiponectin globular domain (gAd) was administered to each mice at a dose shown in Table 2 for two weeks.

KK mice = test: Adiponectin administration to KK mice (serum leptin); format: in vivo, mouse
Description: (§2) Adiponectin or leptin was administered to mice through intraperitoneal injection or continuous systemic infusion as described (Nature 401, 73-76 (1999)). An Alzet micro-osmotic pump (model 1002, Alza) was inserted subcutaneously in the back of each mouse. A daily dose (shown in Figures) of recombinant leptin (Sigma) or adiponectin was dissolved in a total volume of 0.1 mL of PBS, and the solution was delivered to mice through the pump for twelve days.

db/db mice [5] = test system: db/db mice
Description: as §2
(§3) The areas of glucose and insulin curves were calculated by multiplying the cumulative mean height of the glucose values (1 mg/ml=1 cm) and insulin values (1 ng/ml=1 cm), respectively, by time (60 min=1 cm) (Am. J. Physiol. 240, E482-488 (1981)).
(§4) The mice were fed an HC or HF diet. In addition, Ad or gAd was administered, or none of these was administered, to the mice at a predetermined dose (μg/day).

KKA^y mice [6] = test: Adiponectin administration to KKAy mice on high-fat diet; format: in vivo, mouse; details: adiponectin-administered KKAy mice
PPAR-γ+/− mice = test: Adiponectin infusion in PPAR-γ+/− mice on high-fat diet without HX531 (tissue TG, serum FFA/TG); format: in vivo, mouse; details: HF diet, no HX531, Ad 50 μg/day continuous infusion 12 days
Description: as §1
While PPAR-γ^+/− mice were treated with HX531 for six weeks (+) or untreated (−), recombinant full-length adiponectin (Ad), gAd, or leptin (Lep) was administered to each PPAR-γ^+/− mouse at a predetermined dose (μg/day). Administration was performed through continuous systemic infusion in combination with the high-fat (HF) diet for the final twelve days of the six-week HX531 treatment (six weeks).

[7] = PPAR-γ+/− mice, HX531 alone for 6 weeks
[8] = normal C57 mice, high-fat diet, two weeks
[9] = HX531 6 weeks + gAd 2.5 μg/day continuous infusion final 12 days
[10] = gAd at a low concentration, mRNA (FIG. 9)
[11] = HX531 6 weeks + Ad 50 μg/day continuous infusion final 12 days
[12] = db/db mice, adiponectin replenishment

Description for C57 mice: as §2, §3, §4

leptin: recombinant leptin (Sigma) was tested, and the “insulin resistance (FIG. 8)” value (lipoatrophic mice [1]) was “alleviate their insulin resistance, albeit partially”.

Work on `CN(CCOc1ccc(CC2SC(=O)NC2=O)cc1)c1ccccn1` (stereo not drawn) [Rosiglitazone] yielded an adipose tissue mass (db/db mice [2]) of 2.84 ± 0.16 g and a body weight (db/db mice [2]) of 47.9 ± 1.0 g.

In the case of `CN1c2ccc([N+](=O)[O-])cc2N=C(c2ccc(C(=O)O)cc2)c2cc3c(cc21)C(C)(C)CCC3(C)C` [HX531, reference compound], the “Liver TG content” value (lipoatrophic mice [1]; [7]) is reported as 19.36 ± 1.23 mg/g tissue, the “Serum FFA” value (lipoatrophic mice [1]; [7]) is reported as 1.48 ± 0.25 mEq/L and the “Serum TG” value (lipoatrophic mice [1]; [7]) is reported as 201.4 ± 25.3 mg/dL. For the same molecule, the “Skeletal muscle TG content” value (lipoatrophic mice [1]; [7]) was 15.96 ± 1.47 mg/g tissue, the “lowering of expression of lipoprotein lipase (LPL) in WAT” value (lipoatrophic mice [1]; PPAR-γ+/− mice, HX531 for three weeks) was ≥ 90% and the “visible WAT” value (lipoatrophic mice [3]) was “disappearance of visible WAT”.

B1: gAd: C-terminal globular domain of adiponectin, recombinant histidine-tagged fusion protein (protein, listed as Homo sapiens)
chain: AFSVGLETYVTIPNMPIRFTKIFYNQQNHYDGSTGKFHCNIPGLYYFAYHITVYMKDVKVSLFKKDKAMLFTYDQYQENNVDQASGSVLLHLEVGDQVWLQVYGEGERNGLYADNDNDSTFTGFLL
modifications: CDS (1)..(735)
In the case of B1, the serum leptin levels (KKA^y mice [4]) is reported as 57.9 ± 5.7 ng/mL, the “ACO activity, liver” value (KKA^y mice [4]; gAd 2.5 μg/day) is reported as 2.89 ± 0.35 nmol/mg/min and the “ACO activity, skeletal muscle” value (KKA^y mice [4]; gAd 2.5 μg/day) is reported as 0.42 ± 0.04 nmol/mg/min. The “Fatty acid oxidation [14C] palmitate→CO2, liver” value (KKA^y mice [4]; gAd 2.5 μg/day) was 2.89 ± 0.21 nmol/g/h, the “Fatty acid oxidation [14C] palmitate→CO2, skeletal muscle” value (KKA^y mice [4]; gAd 2.5 μg/day) was 4.06 ± 0.44 nmol/g/h and the Rectal temperature (KKA^y mice [4]; gAd 2.5 μg/day) was 37.7 ± 0.1 °C. The “Serum FFA” value (KKA^y mice [4]; gAd 2.5 μg/day) was 0.39 ± 0.04 mEq/L, the “Serum TG” value (KKA^y mice [4]; gAd 2.5 μg/day) was 96.4 ± 18.3 mg/dL and the “TG content, liver” value (KKA^y mice [4]; gAd 2.5 μg/day) was 16.04 ± 0.91 mg/g tissue. The “TG content, skeletal muscle” value (KKA^y mice [4]; gAd 2.5 μg/day) was 8.06 ± 0.61 mg/g tissue, the Food intake (C57 mice; C57 mice on high-fat diet) was 6.28 ± 0.51 g/day and the WAT weight (C57 mice; [8]) was 0.48 ± 0.04 g. It also gave a body weight (C57 mice; [8]) of 20.6 ± 2.1 g, a serum leptin levels (C57 mice; wild-type mice) of 10.4 ± 2.6 ng/mL and a serum leptin levels (KK mice) of 13.4 ± 2.7 ng/mL. The “Liver TG content” value (lipoatrophic mice [1]; [9]) was 13.81 ± 0.91 mg/g tissue, the “Serum FFA” value (lipoatrophic mice [1]; [9]) was 0.43 ± 0.14 mEq/L and the “Serum TG” value (lipoatrophic mice [1]; [9]) was 100.3 ± 17.5 mg/dL. The “Skeletal muscle TG content” value (lipoatrophic mice [1]; [9]) was 3.88 ± 1.74 mg/g tissue, the “expression of CD36, acyl-CoA oxidase (ACO) and uncoupling protein (UCP) 2 in skeletal muscle” value (lipoatrophic mice [1]; [10]) was “increased” and the “expression of PPAR-α in skeletal muscle” value (lipoatrophic mice [1]; [10]) was “increased”. For the same molecule, the “expression of CD36 in the liver” value (lipoatrophic mice [1]; gAd at a low concentration, mRNA (FIG. 10)) was “decreased”, the “hyperglycemia and hyperinsulinemia (insulin resistance index, FIG. 8)” value (lipoatrophic mice [1]) was “much more potently than full-length adiponectin” and the serum leptin levels (db/db mice [5]; db/db mice) was 145.2 ± 14.7 ng/mL.

B2: Ad: recombinant full-length mouse adiponectin, histidine-tagged fusion protein expressed in bacteria (protein, UniProt Q15848 19-244, looked up)
Adiponectin: ETTTQGPGVLLPLPKGACTGWMAGIPGHPGHNGAPGRDGRDGTPGEKGEKGDPGLIGPKGDIGETGVPGAEGPRGFPGIQGRKGEPGEGAYVYRSAFSVGLETYVTIPNMPIRFTKIFYNQQNHYDGSTGKFHCNIPGLYYFAYHITVYMKDVKVSLFKKDKAMLFTYDQYQENNVDQASGSVLLHLEVGDQVWLQVYGEGERNGLYADNDNDSTFTGFLLYHDTN
B2 was tested, and the “expression of enzymes involved in β-oxidation and UCP2 in skeletal muscle” value (KKA^y mice [6]) was “increased”, the “ACO activity, liver” value (KKA^y mice [4]; Ad 50 μg/day) was 3.04 ± 0.85 nmol/mg/min and the “ACO activity, skeletal muscle” value (KKA^y mice [4]; Ad 50 μg/day) was 0.37 ± 0.04 nmol/mg/min. The “Fatty acid oxidation [14C] palmitate→CO2, liver” value (KKA^y mice [4]; Ad 50 μg/day) was 2.92 ± 0.29 nmol/g/h, the “Fatty acid oxidation [14C] palmitate→CO2, skeletal muscle” value (KKA^y mice [4]; Ad 50 μg/day) was 3.95 ± 0.58 nmol/g/h and the Rectal temperature (KKA^y mice [4]; Ad 50 μg/day) was 37.3 ± 0.2 °C. For the same molecule, the “Serum FFA” value (KKA^y mice [4]; Ad 50 μg/day) was 0.67 ± 0.09 mEq/L, the “Serum TG” value (KKA^y mice [4]; Ad 50 μg/day) was 101.3 ± 19.7 mg/dL and the “TG content, liver” value (KKA^y mice [4]; Ad 50 μg/day) was 16.15 ± 0.83 mg/g tissue. The “TG content, skeletal muscle” value (KKA^y mice [4]; Ad 50 μg/day) was 8.75 ± 0.58 mg/g tissue, the serum adiponectin levels (C57 mice; mouse, in vivo) was “partially restored” and the “expression of leptin in WAT” value (C57 mice; wild-type mice) was “did not alter”. For the same molecule, the “hyperglycemia and hyperinsulinemia induced by high-fat diet (GTT)” value (C57 mice; wild-type mice on high-fat diet, continuous systemic infusion of low doses) was “significantly ameliorated”, the “Liver TG content” value (PPAR-γ+/− mice) was 6.45 ± 0.26 mg/g tissue and the “Serum FFA” value (PPAR-γ+/− mice) was 0.35 ± 0.02 mEq/L. For the same molecule, the “Serum TG” value (PPAR-γ+/− mice) was 60.5 ± 6.0 mg/dL, the “Skeletal muscle TG content” value (PPAR-γ+/− mice) was 5.47 ± 0.32 mg/g tissue and the “Liver TG content” value (lipoatrophic mice [1]; [11]) was 16.19 ± 0.72 mg/g tissue. The “Serum FFA” value (lipoatrophic mice [1]; [11]) was 0.61 ± 0.13 mEq/L, the “Serum TG” value (lipoatrophic mice [1]; [11]) was 106.6 ± 18.1 mg/dL and the “Skeletal muscle TG content” value (lipoatrophic mice [1]; [11]) was 7.74 ± 0.65 mg/g tissue. For the same molecule, the “insulin-induced tyrosine phosphorylation of insulin receptor and insulin-receptor substrate 1 and insulin-stimulated phosphorylation of Akt kinase in skeletal muscle” value (lipoatrophic mice [1]; adiponectin-administered lipoatrophic mice (FIG. 11)) was “increase”, the “hyperglycemia and hyperinsulinemia (insulin resistance index, FIG. 8)” value (lipoatrophic mice [1]) was “significantly ameliorated” and the “insulin resistance (FIG. 8)” value (lipoatrophic mice [1]) was “not sufficient to completely ameliorate insulin resistance”. For the same molecule, the “hyperinsulinemia (GTT, FIG. 14)” value (db/db mice [5]; [12]) was “significantly ameliorated”, the “leptin receptor deficiency-induced hyperglycemia (GTT, FIG. 13)” value (db/db mice [5]; [12]) was “significantly ameliorated” and the serum adiponectin levels (db/db mice [5]; mouse, in vivo) was “partially restored”.
